Measured values from paper PMC3750179.
Values belong to the substance of their own block, whether it stands above or below them.

Columns and labels:
[1] = molecular target: HA-GABAB1-YFP (UniProt Q9Z0U4); assay: FRET or BRET; BRET donor saturation curves in intact COS-1 cells: fixed Rluc fusion (donor) and fixed GABAB2, increasing GABAB1-YFP (acceptor); coelenterazine h 5 μM; PBS or 100 μM baclofen for 15 min; fit with a single binding site
[2] = molecular target: HA-GABAB2 (UniProt O88871)
[3] = molecular target: Myc-GABAB1 (UniProt Q9Z0U4); assay: co-IP; cell surface immunoprecipitation: intact COS-1 cells incubated with mouse anti-Myc on ice for 3 h, then PBS or 100 μM baclofen for 15 min, lysed, protein G-agarose, Western blot; cells also expressed HA-GABAB2

Sequence of UniProt O88871 (O88871 41-940): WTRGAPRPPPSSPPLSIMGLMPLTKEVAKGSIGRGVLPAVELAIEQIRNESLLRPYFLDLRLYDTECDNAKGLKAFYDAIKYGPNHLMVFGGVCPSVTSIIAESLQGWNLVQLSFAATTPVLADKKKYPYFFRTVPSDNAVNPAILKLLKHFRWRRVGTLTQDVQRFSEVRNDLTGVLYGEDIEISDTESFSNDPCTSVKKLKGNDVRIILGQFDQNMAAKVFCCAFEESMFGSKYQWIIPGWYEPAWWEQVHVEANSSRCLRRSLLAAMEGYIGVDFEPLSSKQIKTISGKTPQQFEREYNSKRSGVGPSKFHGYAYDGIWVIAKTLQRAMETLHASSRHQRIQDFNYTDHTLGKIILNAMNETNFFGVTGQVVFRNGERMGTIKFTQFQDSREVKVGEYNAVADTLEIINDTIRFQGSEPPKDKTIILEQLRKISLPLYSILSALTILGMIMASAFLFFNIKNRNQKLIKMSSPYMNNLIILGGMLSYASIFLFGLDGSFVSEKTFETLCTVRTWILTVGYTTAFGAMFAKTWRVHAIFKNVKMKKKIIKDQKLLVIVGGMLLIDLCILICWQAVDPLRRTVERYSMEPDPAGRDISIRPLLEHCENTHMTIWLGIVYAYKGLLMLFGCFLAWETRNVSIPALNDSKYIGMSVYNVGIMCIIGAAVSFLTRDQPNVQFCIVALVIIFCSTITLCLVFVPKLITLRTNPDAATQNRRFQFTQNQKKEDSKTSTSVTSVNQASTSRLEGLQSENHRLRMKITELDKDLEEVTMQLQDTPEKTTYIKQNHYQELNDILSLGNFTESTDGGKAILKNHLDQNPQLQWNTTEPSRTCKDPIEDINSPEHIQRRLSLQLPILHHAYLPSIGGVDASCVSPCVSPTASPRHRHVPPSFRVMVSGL

BRET50 [1]: 0.026
Substance: Rluc-KCTD12 (from UniProt Q6WVG3 1-327) (natural protein)

Endo H-resistant fraction of GABAB1 protein in COS-1 cells co-expressing GABAB1 and GABAB2 (all GABAB1 Endo H-sensitive without GABAB2) [2]: 44.5%
Substance: Myc-GABAB1 (from UniProt Q9Z0U4 20-960) (receptor)

ratio of KCTD12:GABAB1 band intensity on Western blots (PBS) [3]: 0.84 | ratio of KCTD12:GABAB1 band intensity on Western blots (baclofen) [3]: 0.91
Substance: FLAG-KCTD12 (from UniProt Q6WVG3 1-327) (natural protein)
